B1: ZNF511 (parent)
chain: HLYPADFRFDKPKKSRSPASAEAP

Variants of: B1
Experiment: protein stability index of a GFP-peptide fusion (GPS, HEK-293T) (PSI 1-6); higher = more stable
Conditions: c terminus: a fixed tail appended
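Also: lentivirally expressed fusions sorted by FACS into six bins by GFP to DsRed ratio, PSI derived from sequencing read proportions per bin multiplied by bin number.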

Protein stability index: each site, then its substitutions
K14: N 3.04, V 2.33, T 2.8, A 3.3, R 2.01, C 2.77, L 3.24, Y 2.62, Q 2.39, F 2.26, W 2.56, S 3.08, P 2.63, H 2.37, D 3.29, I 2.67, M 3.17, E 3.23, G 3.22
R8: P 4.07, Q 3.11, N 3.1, W 1.8, E 3.93, Y 2.37, H 2.82, F 2.37, T 2.44, G 2.53, C 2.8, D 4.13, S 2.05, L 1.77, I 2.03, A 2.61, M 2.64, K 3.3, V 1.6
K11: F 2.95, D 3.23, Q 3.24, W 2.11, I 3.56, V 3.52, L 2.72, P 2.87, R 2.89, E 3.01, C 3.21, Y 2.44, G 3.5, S 3.32, A 3.14, M 2.62, H 2.98, N 3.37, T 3.02
S17: D 3.28, F 2.7, A 2.61, W 2.27, R 3.29, Q 3, T 2.97, C 2.9, K 3.01, I 2.03, V 2.28, L 2.9, P 2.83, H 2.86, N 3.16, G 2.63, Y 2.29, M 2.77, E 3.18
S20: R 2.97, V 2.82, H 2.69, Y 2.61, A 3.32, I 2.64, D 2.97, F 2.22, W 1.8, Q 2.42, P 2.72, K 2.71, G 2.85, E 2.78, L 2.51, T 3.07, C 2.92, M 2.68, N 3.36
P4: T 3.77, A 3.96, G 3.21, N 3.78, S 3.9, H 3.95, Q 3.94, D 4.22, L 3.56, K 4.5, M 3.43, W 2.33, E 4.33, V 3.24, F 2.85, I 3.56, R 3.73, C 3.54, Y 2.73
F9: A 1.29, P 2.35, R 3.71, E 1.88, C 2.61, W 2.82, Q 2, L 3.18, I 2.49, H 2.91, T 2.85, S 2.05, M 2.01, G 2.63, N 2.63, K 4.12, Y 3.29, D 2.1
S15: E 3.18, D 3.35, T 2.4, I 3.23, Y 2.51, M 2.88, N 2.67, W 1.93, K 3.24, C 2.56, L 2.92, P 3.19, R 1.78, V 2.36, G 2.86, Q 3.19, A 3.39, H 2.93, F 3.04
D10: I 1.87, F 2.83, Q 2.26, E 3.08, C 2.15, S 3.22, L 3.01, A 2.16, N 2.39, T 2.69, G 2.85, H 1.52, R 2.71, V 2.62, K 2.8, W 2.92, Y 2.87, M 2.99, P 2.54
Y3: R 4.26, Q 3.85, W 3.71, K 3.84, T 4.65, H 2.69, L 4.36, P 4.73, N 2.43, G 4.38, V 3.81, M 4.4, S 3.64, I 3.73
F7: W 2.09, K 4.71, D 4.63, L 4.49, T 4.25, E 5.23, N 4.15, C 4.29, P 4.24, G 4.42, Q 4.62, R 4.22, H 3.98, I 3.94, V 4.62, Y 3.29, S 4.25, M 4.38, A 4.81
K13: V 2.22, T 3.18, N 2.7, R 3.2, C 2.8, F 2.7, W 2.58, A 3.07, Y 3.56, Q 3.4, M 2.84, G 2.92, H 2.78, D 3.04, L 2.94, E 3.34, I 3, S 2.91, P 3.64
A21: C 3.1
P18: G 2.58, M 2.78, W 2.51, L 2.73, I 2.96, N 2.34, T 3.52, D 3.09, V 2.33, K 3.08, C 2.97, A 2.22, E 2.74, H 2.74, Y 2.34, F 2.3, Q 2.56, R 2.79, S 2.97
A5: P 4.01, M 2.48, D 2.32, N 2.29, R 3.21, T 3.11, Y 2.79, I 3.5, S 2.69, L 3.02, H 3.06, K 2.97, G 2.62, W 1.63, F 2.63, C 3.06, Q 2.16, V 3.6, E 2.3
R16: A 3.51, P 3.2, C 2.54, L 2.97, V 2.51, I 2.6, E 3.34, F 2.73, G 3.29, M 3.28, Q 3.28, Y 2.13, N 3.17, H 3.13, W 3.05, D 3.18, T 3.44, K 3.36, S 2.76
A19: Q 2.56, T 3.29, S 3.44, R 2.81, M 2.7, D 3.36, V 2.87, E 2.97, W 2, L 2.88, H 2.68, K 3.54, P 3.18, N 2.56, Y 2.69, F 2.05, G 3.02, I 2.74, C 2.63
P12: L 3.25, S 2.64, H 2.89, C 2.94, Y 2.94, W 3.02, N 2.65, I 3.72, G 3.02, R 2.47, K 2.96, Q 3.18, E 3.69, D 3.2, T 3.7, F 3.14, V 2.8, M 2.72, A 2.83
D6: T 2.48, S 3.17, G 3.23, N 2.82, K 2.22, C 2.52, Q 2.18, W 2.87, E 2.1, P 3.19, M 1.55, A 2.12, I 1.47, R 2.59, H 3, L 2.61

— the supplement of paper PMC10567573
